Experiment: yeast display, Sf9 membrane polyspecificity reagent, FACS + sequencing; frameworks hold sequencing errors
In short: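 After 36–48 hours of galactose induction, yeast (Saccharomyces cerevisiae BJ5465) displaying a synthetic nanobody library were stained at 4 °C for 1 hour with 10% biotinylated, detergent-solubilized Sf9 membrane reagent. Streptavidin microbeads enriched the stained cells before FACS sorting into low and high (top ~1%) gates on anti-HA and streptavidin fluorescence. Each clone's polyreactivity label reflects its gate of origin.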

Row | Sequence | polyreactivity (PSR sort gate)
1 | QVQLVESGGGLVQAGGSLRLTCAASGRIFSRNTMGWYRQAPGKERELVATISWSGSRTYYADSVKGRFTISRDNAKNTVYLQMNSLKPEDTAVYYCAAVVPLSRSYDYYYWGQGTQVTVSS | high polyreactivity
2 | QVQLVESGGGLVQAGGSLRLTCAASGRIFTVYAMGWYRQAPGKERELVAAIDFSDGTTYYADSVKGRFTISRDNAKNTVYLQMNSLKPEDTAVYYCAAEGGSALDDDYWGQGTQVTVSS | high polyreactivity
3 | QVQLVESGGGLVQAGGSLRLTCAASGRIFYKYVMGWYRQAPGKERELVATITSGGSTYYADSVKGRFTISRDNAKNTVYLHMNSLKPEDTAVYYCAARKYYSRAYDYWGQGTQVTVSS | high polyreactivity
4 | QVQLVESGGGLVQAGGSLRLTCAASGRIFYNYAMGWYRQAPGKERELLAAISGSGGSTYYADSVKGRFTISRDNAKNSVYLQMNSLKPEDTAVYYCSTSCPQYYSRNFDYWGQGTQVTVSS | low polyreactivity
5 | QVQLVESGGGLVQAGGSLRLTCAASGRILVLNAMGWYRQAPGKERELVADITSGGSTYFADSVKGRFTISRDNAKNTVYLQMNSLKPEDTAVYYCAADWNTYPDYQQSYFVSYEYNYWGQGTQVTVSS | low polyreactivity
6 | QVQLVESGGGLVQAGGSLRLTCAASGRILYSYAMGWYRQEPGKERELVAAISGSGGSTYYADSVKGRFTISRDNSKNTVYLQMNMLKPEDTAVYYCAARDLYRYRPQGLGSSQRYYYWGQGTQVTVSS | high polyreactivity
7 | QVQLVESGGGLVQAGGSLRLTCAASGRISGYNMGWYRQAPGKERELVAGIDYSGGSTYYADSVKGRFTISRDNAKYNVSLQMTSLKPEDTAVYDCNAVYARKYYYSHGYDYWGQGTQVTVSS | high polyreactivity
8 | QVQLVESGGGLVQAGGSLRLTCAASGRISRYYAMGWYRQAPGKERELVATITFSGGSTYYADSVKGRFTISRDNAKNTVYLQMNSLKPEDTAVYYCAKQRGGAYLVPWYGYWGQGTQVTVSS | high polyreactivity
9 | QVQLVESGGGLVQAGGSLRLTCAASGRNFSQNAMGWYRQAPGKERELVAAISVTGGRTYYADSVKGRFTISRDNAKNTVYLQMNSLKPEDTAVYYCAKRTRSPGYYYWGQGTQVTVSS | high polyreactivity
10 | QVQLVESGGGLVQAGGSLRLTCAASGRTFDYNAMGWYIQAPGKERELVAAISQSGGRTYYADSVKGRFTISRDHAKNTVYLQMNSLKPEDTAVYYCAAEAYGNRDYWGQGTQVTVSS | low polyreactivity
11 | QVQLVESGGGLVQAGGSLRLTCAASGRTFGDNAMGWYRQAPWKERELVAAITSGASTYYADAVKGRFTISRDNAMNTVYLQMNSLKPEDTAVYYCADDQGDWNGYGFDYWGQGTQVTVSS | low polyreactivity
12 | QVQLVESGGGLVQAGGSLRLTCAASGRTFGYYTMGWYRQAPGKERELVATISSDGTTNYADSVKGRFTISRDNAKNTVYLQMNSLKPEDTAVYYCNADFRLQYYYRIYDYWGQGTQVTVSS | low polyreactivity
13 | QVQLVESGGGLVQAGGSLRLTCAASGRTFKFNAMGWDRQAPGKERELVAGITWTGSTTSYADSVKGRFTISRDNAKNTVYLQMNSLKPEDTSVYYCAADKIRFWYHGFYYRGQGTQVTVSS | low polyreactivity
14 | QVQLVESGGGLVQAGGSLRLTCAASGRTFNIYAMGWYRQAPGKERELVAAITSGGSTNYADSVKGRFTISRDNAKNTVYLQMNSLKPEDTAVYYCNARYFRGYDYWGQGTQVTVSS | high polyreactivity
15 | QVQLVESGGGLVQAGGSLRLTCAASGRTFPSYTMGWYRQAPGKERELVAAITWSGGSTYADSVKGRFSISRDNAKNTVYLQMKSLKPEDSAVYYCNAPIIAYDDGGSLVRYGRGDYWGQGTQVTVSS | low polyreactivity
16 | QVQLVESGGGLVQAGGSLRLTCAASGRTFRGYVKAWSRQAPGKERELVAAISWSGGSTYYADSVKGRFTISRDNAKNSVYLQMKSLKPEDTAVYYCAARRYSYVGGQGSDYWGQGTLVTVSS | high polyreactivity
17 | QVQLVESGGGLVQAGGSLRLTCAASGRTFRVYAMGWYRQAPGKERELVATITSSGGSTYYADSVKGRFTISRDNAKKTVYLQMNSLKREDTAVYYCNVSVYYNYDSSYDYWGQGTQVTVSS | low polyreactivity
18 | QVQLVESGGGLVQAGGSLRLTCAASGRTFSKYAMGWYRQATGKERELVAAITSGGGTYYADSVKGRFTISRDNAKNTVYLQMNSLNPEDTAVYYCAVSVTTVSTYDYWGQGTQVTVSS | low polyreactivity
19 | QVQLVESGGGLVQAGGSLRLTCAASGRTFTLNAMGWYRQAPGKERELVADIRRRGGSTYYADSVKGRFTISRDNAKNTVYVQMNSRKAADTAVYYCATHGRWYKLPTGWRPYDYWGLGTQVTVSS | high polyreactivity
20 | QVQLVESGGGLVQAGGSLRLTCAASGRTFVTNAMGWYRQAPGKERELVAAISWSGGDTYYADSVKGRFTISRDNAKYTVYLEMNSLKPEDTAVYYCAAYFWGVYFFGMDYWGQGTLVTVSS | low polyreactivity
21 | QVQLVESGGGLVQAGGSLRLTCAASGRTFYINAMGWYRQAPGKERELVAAISSGGSTNYADSVKGRFTISRDNAKNTVSLQMNSLKPEDTAVYYCNARLRSFTLSDAEYEYWGQGTQVTVSS | low polyreactivity
22 | QVQLVESGGGLVQAGGSLRLTCAASGRTLRLYPMGWYRQAPGKERELVAAISRSGSSTYADSVKGRFTISRDNAKNTVYLQMYSLKPEDTAVYYCNAYQPRYGYWGQGTQVTVSS | high polyreactivity

Row | Sequence | polyreactivity (PSR sort gate)
23 | QVQLVESGGGLVQAGGSLRLTCAASGSIFCAYTMGWSRQAPGKECDLVAAISASGGSTYYADSVKGRFTISRDNAKNTVYLQMNSLNPDDTAVYYCAAVYDLGYYGPIWAIVLDDYWGQGTQVTVSS | low polyreactivity
24 | QVQLVESGGGLVQAGGSLRLTCAASGSIFDFYAMGRYRQAPGQERELVAAISGSGGSTYYADSVKGRFTISRDNGKNTVYFQMDSLKPEDTAVYYCSYYYWGQGTQVNVSS | low polyreactivity
25 | QVQLVESGGGLVQAGGSLRLTCAASGSIFFDYGMGWYRQAPGKERELVATITRGTGSTYYADSVKGRFTISRDNAKNTVSLQMNSLKPEDTAVYYCAESYSYYNSYDYWGQGTQVTVSS | high polyreactivity
26 | QVQLVESGGGLVQAGGSLRLTCAASGSIFGNAMGWYREAPGKEREIVAAISSSGSSTYYADSVKGRFTMSRDTAKNTVYLQMNSLKPADTAVYYCNKGSRRYHGYDYWGQGTQVTVSS | high polyreactivity
27 | QVQLVESGGGLVQAGGSLRLTCAASGSIFKTNAMGWYRQAPGKERELVAAIRASGGSTYYADSVKGRFTISRDNAKNTVYLQMNSLKPEDTAVYYCAARYWFKYYWGQGTQVTVSS | low polyreactivity
28 | QVQLVESGGGLVQAGGSLRLTCAASGSIFSYYAMGWYRQAPGKERELVADISFTGDSTFYADSVKGRFTISRDNAKNTVYLQMNSLKPEDTADYYCAKDEIMAVYFEYDYWGQGTQVTVSS | low polyreactivity
29 | QVQLVESGGGLVQAGGSLRLTCAASGSIFWGYALGWYRQAPGKERELVATIRNRGGSTYYADSVKGRFTISRDNAKNTVYLQMNSLKPEDTAVYYCAADEGGFWWTYPYDSWGQGTQVTVSS | low polyreactivity
30 | QVQLVESGGGLVQAGGSLRLTCAASGSIFYAYAMGWYRQAPGKERELVAAISGRGGSTYYADSVTGRFTISRDNAKKTVYFQMNSLKPEDTAVYYCAAERRTFYGLGVHYWGQVTQVTVSS | high polyreactivity
31 | QVQLVESGGGLVQAGGSLRLTCAASGSIFYRNAMGLYRQAPGKEMELVADISWSGSSTYADSVKGLFTISRDNAKYTVYLHMNTLKPEDTAVYYCAAGGHYYSSPGYNYWGQGTQVTVSS | high polyreactivity
32 | QVQLVESGGGLVQAGGSLRLTCAASGSIFYYNAKGWYRQAPAKERELVATITQTGGSTYYADSVKARFTISRDNAKNTVYLQMNSLKPEDTAVYYCASDYFPYEYDYWGQGTQVTVSS | low polyreactivity
33 | QVQLVESGGGLVQAGGSLRLTCAASGSIVQVYPMVWYRQEPGKEREFVAAISYSGGGTYYADSVKGRFTISRDIAKNTVYLQMNILKPEDTAVYYCAADVSAWEEDIWRQGTQVTVSS | low polyreactivity
34 | QVQLVESGGGLVQAGGSLRLTCAASGSIYGVYAMGWSIQGPGKEREWVAVISWNGGRTYYADSVKGRFTISRDNAKNTVYLQMNSLKPEDTAVYYCAADTSYRYRDYHVDYWGQGTQVTVSS | high polyreactivity
35 | QVQLVESGGGLVQAGGSLRLTCAASGSTFGWYTKGWYRQAPGKERELVAAISSGGSTYYADSVKGRFTISRDNAKNTVYLQMNSLKPEDTAVYYCNAKVPSSYSYYSYYEYDYWGQGTQVTVSS | low polyreactivity
36 | QVQLVESGGGLVQAGGSLRLTCAASGSTFSKNGMGWYRQAPGKEREFVAAISGSGGSTYYADSVRGRFTISRDNAKNTVYLQMNSLKPEDTAVYYCAARRVWYYISAYGYWGQGTQVTVSS | high polyreactivity
37 | QVQLVESGGGLVQAGGSLRLTCAASGSTFSPYAMGWYRQATGKERELVAAISASGGGTYYADSVKGRFTISRDYAKNTVYLQMNRLIPVDTAVYYCARDYGWDISKGRYGYWGQGTQVTVSS | low polyreactivity
38 | QVQLVESGGGLVQAGGSLRLTCAASGSTFTRYAMGWYRQAPGKERELVATIIFSGDRTYYADSVKGRFTISRDNAKNTVYLEMNSLKPEDTAVSYCNKYRYQWPYRRFDYWGQGTQVTVSS | high polyreactivity
39 | QVQLVESGGGLVQAGGSLRLTCAASGSTFVRYAMGWYRQAPGKERELVATIRRVGSTNYADSVKGRFTISRDNAKNTVYLQMNSLKPEDTEVYYCAARSLRYGRGMYYWGQGTQVTVSS | high polyreactivity
40 | QVQLVESGGGLVQAGGSLRLTCAASGSTFVRYVMGWYRQAPGKERELVAAISRRGGSTYYADSVKGRFTISRDNANNTVYLQMNSLKPEDTAVYYCARTVGYRTLLESDSWGQGTQVTVSS | high polyreactivity
41 | QVQLVESGGGLVQAGGSLRLTCAASGSTFYSNAMGWYRQAPGKERYLVAAITSRGDRTYYADSVKGRFTISRDNAKNTVYFQLNSLNPEDTAVYSCAAEQSWQGYAYYYWGQGTQVTVSS | high polyreactivity
42 | QVQLVESGGGLVQAGGSLRLTCAASGSTFYSYTMGWYRQAPGKERELVAVISSSGGRTYYADSVKGRFTISRDNAKNTVYFQMNSLKPEDTAVYYCAASQRGYFDYRLWSFRSDSWGQGTQVTVSS | high polyreactivity
43 | QVQLVESGGGLVQAGGSLRLTCAASGSTSGQNAMGRYRQAPGNERELVAAISSSAGSTYADSVKGRFTISRDNAKNTVYLQMNSLKPEDTAVYYCNVPYYYTRGSYGYWGQGTQVTVSS | low polyreactivity

From the nanobody polyreactivity screen of Harvey et al. (2022)
